Molecular target: HA-tagged HNRNPK (heterogeneous nuclear ribonucleoprotein K), wild type (human) (UniProt P61978)
Assay: co-IP; anti-HA agarose beads on lysates of Huh7.5 cells stably expressing HA-tagged HNRNPK or its deletion mutants, 48 h after electroporation with a subgenomic JFH1 replicon or genomic HCV RNA; lysis buffer 20 mM Tris-HCl pH 7.5, 0.5% Nonidet P-40, 1 mM sodium deoxycholate, 100 mM NaCl; 3 h at 4°C; elution with HA peptide; immunoblot; cells with non-tagged HNRNPK as control

HCV core protein (natural protein)
percent of the intracellular HCV protein coprecipitated: 1%
